These results are taken from publication PMC9064986 (2022).

The labels stand for the following.
T1: BMPRII ECD E98K (human, UniProt Q13873-1 27-150, E98K)
T1 sequence: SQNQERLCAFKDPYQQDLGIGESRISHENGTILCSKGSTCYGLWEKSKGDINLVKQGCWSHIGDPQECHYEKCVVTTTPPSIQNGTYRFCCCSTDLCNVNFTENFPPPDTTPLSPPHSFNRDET

T2: BMPRII ECD G89A (human, UniProt Q13873-1 27-150, G89A)
T2 sequence: T1 sequence with G63A, K72E

T3: BMPRII ECD G89E (human, UniProt Q13873-1 27-150, G89E)
T3 sequence: T1 sequence with G63E, K72E

T4: BMPRII ECD Q92H (human, UniProt Q13873-1 27-150, Q92H)
T4 sequence: T1 sequence with Q66H, K72E

T5: BMPRII ECD S107P (human, UniProt Q13873-1 27-150, S107P)
T5 sequence: T1 sequence with K72E, S81P

T6: BMPRII ECD G89W (human, UniProt Q13873-1 27-150, G89W)
T6 sequence: T1 sequence with G63W, K72E

T7: BMPRII ECD N126S (human, UniProt Q13873-1 27-150, N126S)
T7 sequence: T1 sequence with K72E, N100S

B1: BMPRII extracellular domain (ECD), wild type (domain or fragment)
chain: T1 sequence with K72E
B2: BMPRII-Fc (R&D Systems) (Fc fusion)
chain: T1 sequence with K72E
B3: Recombinant human BMP10 growth factor (GF)-domain (R&D Systems) (ligand)
chain: NAKGNYCKRTPLYIDFKEIGWDSWIIAPPGYEAYECRGVCNYPLAEHLTPTKHAIIQALVHLKNSQKASKACCVPTKLEPISILYLDKGVVTYKFKYEGMAVSECGCR

Substitutions are numbered along the chain they refer to.

The target of assay [1] is B3. Put plainly: SPR. On the technique in general: Surface plasmon resonance follows binding to a sensor surface in real time, without labels.
Assay [2] has as its target B3. Put plainly: SPR.
For assay [3], the target named is B3. Put plainly: SPR; BMP10 immobilised.
Assay [4] addresses B3. Put plainly: SPR; BMP10 immobilised.
The target in assay [5] is B2. Put plainly: SPR; BMP10 pre-complexed with ALK1 ECD.
The target of assay [6] is T1, BMPRII ECD E98K. Put plainly: SPR.
In assay [7] the target is T2, BMPRII ECD G89A. Put plainly: SPR.
For assay [8], the target named is T3, BMPRII ECD G89E. Put plainly: SPR.
The target in assay [9] is T4, BMPRII ECD Q92H. Put plainly: SPR.
Assay [10] deals with T5, BMPRII ECD S107P. Put plainly: SPR.
The target of assay [11] is T6, BMPRII ECD G89W. Put plainly: SPR.
The target in assay [12] is T7, BMPRII ECD N126S. Put plainly: SPR.
The target in assay [13] is B2. Put plainly: SPR; BMP10 pre-complexed with ALK1 ECD.
The next assay addresses BMPRII ECD ΔF1 (human, UniProt Q13873-1 27-150). Put plainly: SPR.
For the next assay, the target named is BMPRII ECD ΔF3 (human, UniProt Q13873-1 27-150). Put plainly: SPR.
The target in assay [14] is T1, BMPRII ECD E98K. Put plainly: SPR. This is another data set of the same source.
Assay [15] has as its target T2, BMPRII ECD G89A. Put plainly: SPR. The source holds these as a separate data set.
The target of assay [16] is T3, BMPRII ECD G89E. Put plainly: SPR. This is another data set of the same source.
For assay [17], the target named is T4, BMPRII ECD Q92H. Put plainly: SPR. This is another data set of the same source.
Assay [18] deals with T5, BMPRII ECD S107P. Put plainly: SPR. This is another data set of the same source.
In assay [19] the target is T6, BMPRII ECD G89W. Put plainly: SPR. The source holds these as a separate data set.
Assay [20] concerns the target T7, BMPRII ECD N126S. Put plainly: SPR. The source holds these as a separate data set.
In assay [21] the target is B2. Put plainly: SPR; BMPRII-Fc immobilised.
The target of assay [22] is B2. Put plainly: SPR; BMPRII-Fc immobilised.

As a reminder, the koff is a measure of how fast the partners let go of each other. Usually Kd stands for the equilibrium constant for the complex coming apart.

As for B1, the koff in [1] was found to be 0.161 s⁻¹. In assay [2], the equilibrium dissociation constant (Kd) was 1190 nM.
With B2, in assay [3], the Kd is 4.47 nM. Further, the koff in assay [4] was determined as 0.000857 s⁻¹.
In the case of B3, the dissociation rate constant (koff) with BMPRII-Fc (R&D Systems) [5] came to 0.00138 s⁻¹; in the assay with BMPRII ECD E98K [6] it was 0.158 s⁻¹; with BMPRII ECD G89A [7], 0.331 s⁻¹; in the assay with BMPRII ECD G89E [8], 0.609 s⁻¹; with BMPRII ECD Q92H [9], 0.147 s⁻¹; with BMPRII ECD S107P [10], 0.0423 s⁻¹. For the same molecule, the off-rate constant (koff) is 0.433 s⁻¹ with BMPRII ECD G89W [11]; 0.14 s⁻¹ with BMPRII ECD N126S [12]; 0.309 s⁻¹ in the assay with BMPRII ECD ΔF1; 0.49 s⁻¹ in the assay with BMPRII ECD ΔF3; 0.000838 s⁻¹ in the assay with BMPRII-Fc (R&D Systems) [22]. Also, the Kd with BMPRII-Fc (R&D Systems) [13] was 1.6 nM; with BMPRII ECD ΔF1, 6630 nM; with BMPRII ECD ΔF3 it was 4170 nM; in the assay with BMPRII ECD E98K [14] it was 1070 nM; with BMPRII ECD G89A [15] it was 3190 nM; with BMPRII ECD G89E [16] it was 153000 nM. The Kd with BMPRII ECD Q92H [17] is 1220 nM; in the assay with BMPRII ECD S107P [18], 328 nM; with BMPRII ECD G89W [19], 237000 nM; in the assay with BMPRII ECD N126S [20] it was 1320 nM; with BMPRII-Fc (R&D Systems) [21], 0.338 nM.
